Columns and labels:
thrombin (alpha) [1] = molecular target: T1, thrombin (alpha) (human, UniProt P00734;P00734 P00734:328-363,P00734:364-622); assay: filter; 50 mM Tris pH 7.5, 100 mM NaCl, 1 mM MgCl2, 37 C
[2] = molecular target: T2, basic fibroblast growth factor (bFGF) (UniProt P09038 P09038:135-288); assay: filter; PBS; details: tags: Bachem California, 18 kDa, 154 aa; 125I-labeled for receptor assays; label: 32P
Procedure: (§1) In order to eliminate higher order structures, all DNA solutions were heated to 90° C. in PBS for 2–3 minutes and cooled on ice prior to incubation with protein. Relative binding affinity of individual ligands to bFGF cannot be predicted from sequence information. The majority of sequence isolates were therefore screened for their ability to bind to bFGF by measuring the fraction of radiolabeled DNA bound to nitrocellulose filters following incubation with 1 nM protein. […] Binding of these select isolates was then analyzed in more detail.

[3] = molecular target: T2, basic fibroblast growth factor (bFGF); assay: filter; PBS, 0.01% HSA, 1 mM DTT, 37 C; +/-0.3; details: tags: Bachem California, 18 kDa, 154 aa; 125I-labeled for receptor assays
Procedure: (§2) This affinity screening allowed identification of those ligands with highest affinity for bFGF. Binding of a group of these ligands was analyzed over a range of bFGF concentrations (FIG. 5) and their dissociation constants.(Kd's) were determined as described (Jellinek et al. (1993) Proc. Natl. Acad. Sci. USA 90:11227–11231) (Table IX). RNA concentrations were determined from their absorbance reading at […] (and were typically <100 pM). Binding reactions were done at 37° C. in phosphate buffered saline containing 0.01% human serum albumin and 1 mM DTT.

[4] = molecular target: T2, basic fibroblast growth factor (bFGF); assay: filter; details: tags: Bachem California, 18 kDa, 154 aa; 125I-labeled for receptor assays
Procedure: as §1
Those ligands are M225, M19, m234, M235, and D12 (SEQ ID NOS:359, 353, 387, 360, 332). The minimum size of the region necessary for binding was determined to be 35 bases for M225, M19 and D12 (See Truncations, Table XXI M225t3 (SEQ ID NO:364), M19t2 (SEQ ID NO:365), D12t2 (SEQ ID NO:341)). The ligand with the smallest essential sequence, m234, was isolated from Family 2, Experiment 3 and contains 24 nucleotides (m234t2 (SEQ ID NO:391)). The truncated ligands were tested for binding to bFGF. After truncation, ligands M225t3, M19t2, D12t2, M235t2, and m234t2 have kd values of 0.7 nM, 1 nM, 1 nM, 1 nM, and 6 nM respectively (Table XXII). All five of the truncated molecules lost some of their affinity for bFGF in comparison to the full length ligands. The binding affinity is regained when an additional G-C base pair is added to the blunt end stem of M225t3. This molecule is termed M225t3GC (SEQ ID NO:443). The binding of M225t3GC is 0.2 nM compared to 0.7 nM for M225t3 without the additional base pair (Table XXII).

[5] = molecular target: T2, basic fibroblast growth factor (bFGF); assay: filter; PBS, 0.01% HSA, 1 mM DTT, 37 C; +/-0.5; details: tags: Bachem California, 18 kDa, 154 aa; 125I-labeled for receptor assays
Procedure: as §2

thrombin (alpha) [6] = molecular target: T1, thrombin (alpha); assay: filter; specificity, data not shown
antithrombin III = antithrombin III (UniProt P01008 P01008:33-464); assay: filter; specificity, data not shown; details: label: 32P
[7] = molecular target: vascular endothelial growth factor (VEGF) (UniProt P15692-4 P15692-4:27-191); assay: filter; specificity, data not shown; details: chain copies: 2; label: 32P
acidic FGF = acidic FGF (UniProt P05230 P05230:16-155); assay: filter; specificity, data not shown; details: label: 32P
Chain of acidic FGF (P05230 16-155, one chain of several): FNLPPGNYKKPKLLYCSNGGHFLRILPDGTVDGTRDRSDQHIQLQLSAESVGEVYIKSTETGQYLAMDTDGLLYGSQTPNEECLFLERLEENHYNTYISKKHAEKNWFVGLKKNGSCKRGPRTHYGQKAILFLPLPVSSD

Chain of antithrombin III (P01008 33-464, one chain of several): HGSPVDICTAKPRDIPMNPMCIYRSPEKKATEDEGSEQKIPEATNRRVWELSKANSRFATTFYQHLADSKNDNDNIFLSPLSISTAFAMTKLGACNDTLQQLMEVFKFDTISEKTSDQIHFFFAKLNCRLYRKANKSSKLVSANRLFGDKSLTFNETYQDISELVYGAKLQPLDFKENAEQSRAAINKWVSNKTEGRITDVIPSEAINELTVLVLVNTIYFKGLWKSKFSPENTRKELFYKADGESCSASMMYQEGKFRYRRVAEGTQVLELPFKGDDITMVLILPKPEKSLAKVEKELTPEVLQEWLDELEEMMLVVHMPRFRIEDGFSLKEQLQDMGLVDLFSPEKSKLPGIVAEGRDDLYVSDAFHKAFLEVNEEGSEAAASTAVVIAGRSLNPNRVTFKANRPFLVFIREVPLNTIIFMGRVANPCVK
T2 sequence (P09038 135-288, one chain of several): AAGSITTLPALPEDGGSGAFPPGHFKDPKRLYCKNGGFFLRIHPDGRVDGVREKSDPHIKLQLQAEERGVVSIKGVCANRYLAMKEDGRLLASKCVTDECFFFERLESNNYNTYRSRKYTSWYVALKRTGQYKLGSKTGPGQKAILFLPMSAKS
Chain of vascular endothelial growth factor (VEGF) (P15692 other isoform, or with tags, fused parts or gaps): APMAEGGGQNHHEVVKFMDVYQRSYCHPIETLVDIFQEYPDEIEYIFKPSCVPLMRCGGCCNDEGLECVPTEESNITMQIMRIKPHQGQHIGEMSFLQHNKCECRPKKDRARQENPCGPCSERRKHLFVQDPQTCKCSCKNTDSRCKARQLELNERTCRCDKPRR

B1: 60-27 (ssDNA)
DNA: AGATGCCTGTCGAGCATGCTGGCGTCCGATGATTCAGGTCGTGGTAGGCATTGAGGGATGGGGTCCTGTGGGACTGGCCTGTAGCTAAACTGCTTTGTCGACGGG
Kd (thrombin (alpha) [1]): 0.96 nM

B2: M225 (ssDNA)
DNA: GGGAGGACGATGCGGGGCTACGTACCGGGGCTTTGTAAAACCCCGCAGACGACGACGGGGA
Kd [2]: 0.1 nM

B3: 2'-NH2 58A (ssRNA)
RNA: GGGAGACAAGAAUAACGCUCAAUUAACGGCGUGGUCCGAGGGUGGCGAGUACUUCGACAGGAGGCUCACAACAGGC
modifications: 2'-NH2 pyrimidines
Kd [3]: 1.4 nM

B4: m206 (ssDNA)
DNA: GGGAGGACGATGCGGACCTGGTGGCTGTGCTTATGTCCCCCTCATCAGACGACGACGGGGA
Kd [2]: 1.8 nM

B5: 60-18 (ssDNA)
DNA: AGATGCCTGTCGAGCATGCTCTTTGGAGACAGTCCGTGGTAGGGCAGGTTGGGGTGACTTCGTGGAAGAAGCGAGACGGTGTAGCTAAACTGCTTTGTCGA
Kd (thrombin (alpha) [1]): 0.92 nM

B6: 2'-NH2 47B (ssRNA)
RNA: GGGAGGACGAUGCGGAGGGUGGCUGGGAGGACCCGCGGUGAAUCGGUAGCACAGUGAUGUUCGGUCAGACGACUCGCCCGA
modifications: 2'-NH2 pyrimidines
Kd [3]: 2.9 nM

B7: 60-18(38) (ssDNA)
DNA: CAGTCCGTGGTAGGGCAGGTTGGGGTGACTTCGTGGAA
Kd (thrombin (alpha) [1]): 1.9 nM

B8: m224 (ssDNA)
DNA: GGGAGGACGATGCGGCACCGAGGAATAACTGACGCCAGGCTGGCGCAGACGACGACGGGGA
Kd [2]: 1.5 nM

B9: M235 (ssDNA)
DNA: GGGAGGACGATGCGGGGCTCTGCAAAGGACACAGGTCCTACGCATCAGACGACGACGGGGA
Kd [2]: 0.2 nM

B10: 30-6 (ssDNA)
DNA: AGATGCCTGTCGAGCATGCTACACCCGTGGTAGGGTAGGATGGGGTGGTCGTAGCTAAACTGCTTTGTCGACGGG
Kd (thrombin (alpha) [1]): 1.2 nM

B11: 30-16 (ssDNA)
DNA: AGATGCCTGTCGAGCATGCTGCCGCTACGAGGGTAGGTGTGGATGCTGCCGTAGCTAAACTGCTTTGTCGACGGG
Kd (thrombin (alpha) [1]): 9.4 nM

B12: M17 (ssDNA)
DNA: GGGAGGACGATGCGGGGGGCTTTGCAAAAATTGTTAAATCTACCCCAGACGACGACGGGGA
Kd [2]: 6.9 nM

B13: 60-7 (ssDNA)
DNA: AGATGCCTGTCGAGCATGCTGGCGGCGTTGGTGTAGTGGCGCACTGTGGTTGGGCGGAGAGGCTAGGAGTGCATGATGCCGTAGCTAAACTGCTTTGTCGACGGG
Kd (thrombin (alpha) [1]): 2.5 nM

B14: M225t3GC (ssDNA)
DNA: GGCGGGGCTACGTACCGGGGCTTTGTAAAACCCCGCC
Kd [4]: 0.2 nM

B15: D12t2 (ssDNA)
DNA: AGGCCAGGGCTATGCAAATCGCGGCGCCTATGGCC
Kd [4]: 1 nM

B16: m234 (ssDNA)
DNA: GGGAGGACGATGCGGCCCGAGGAGCTTTAGCGCCACAGGTTTGTGCAGACGACGACGGGGA
Kd [2]: 0.7 nM

B17: 2'-NH2 53A (ssRNA)
RNA: GGGAGACAAGAAUAACGCUCAAUGAGGAUCGGAUGGGGAGCAGGCGGAGGAAUUCGACAGGAGGCUCACAACAGGC
modifications: 2'-NH2 pyrimidines
Kd [3]: 1.5 nM

B18: 2'-NH2 22B (ssRNA)
RNA: GGGAGGACGAUGCGGCGUGGUUCCGUGGGUGGUGAGAUGAGACUUAAUCAGUUCGUAGACCGGUCAGACGACUCGCCCGA
modifications: 2'-NH2 pyrimidines
Kd [5]: 2.8 nM

B19: M235t2 (ssDNA)
DNA: GCGGGGCTCTGCAAAGGACACAGGTCCTACGCATCAG
Kd [4]: 1 nM

B20: M19t2 (ssDNA)
DNA: GCGGGGCTATGTAAATTACTGCTGTACTACGCATC
Kd [4]: 1 nM

B21: 30-14 (ssDNA)
DNA: AGATGCCTGTCGAGCATGCTGTTGTGGTAGGGTTAGGGATGGTAGCGGTTGTAGCTAAACTGCTTTGTCGACGGG
Kd (thrombin (alpha) [1]): 1 nM

B22: 26A (ssRNA)
RNA: GGGAGCUCAGAAUAAACGCUCAACGUCAGAAGGCAACGUAUAGGCAAGCACACUUCGACAUGAGGCCCGGAUCCGGC
Kd (thrombin (alpha) [6]): > 300 nM | Kd (antithrombin III): > 300 nM | Kd [7]: > 300 nM | Kd (acidic FGF): > 300 nM

B23: 2'-NH2 49A (ssRNA)
RNA: GGGAGACAAGAAUAACGCUCAAAUGGUGUGUGGAAGACAGUGGGUGGUUGCAUUCGACAGGAGGCUCACAACAGGC
modifications: 2'-NH2 pyrimidines
Kd [3]: 1.4 nM

B24: 2'-NH2 52B (ssRNA)
RNA: GGGAGGACGAUGCGGGGAGGGGCAGGUUCGAUGCGGGAGCGACUGACCACGAGAAAUGUGCGGGUCAGACGACUCGCCCGA
modifications: 2'-NH2 pyrimidines
Kd [3]: 2.3 nM

B25: 7A (ssRNA)
RNA: GGGAGCUCAGAAUAAACGCUCAAUCGGCGAGCUAACCAAGACACUCGCUGCACUUCGACAUGAGGCCCGGAUCCGGC
Kd (thrombin (alpha) [6]): > 300 nM | Kd (antithrombin III): > 300 nM | Kd [7]: > 300 nM | Kd (acidic FGF): > 300 nM

B26: M19 (ssDNA)
DNA: GGGAGGACGATGCGGGGCTATGTAAATTACTGCTGTACTACGCATCAGACGACGACGGGGA
Kd [2]: 0.3 nM

B27: 2'-NH2 72B (ssRNA)
RNA: GGGAGGACGAUGCGGCUCAGCAUCCAGGAAGGGGACUUGGUAGGGCACCAUCGAGAUCUUGGCGUCAGACGACUCGCCCGA
modifications: 2'-NH2 pyrimidines
Kd [5]: 3.4 nM

B28: 5A (ssRNA)
RNA: GGGAGCUCAGAAUAAACGCUCAAAUCUCCUCCCGUCGAAGCUAACCUGGCCACUUCGACAUGAGGCCCGGAUCCGGC
Kd (thrombin (alpha) [6]): > 300 nM | Kd (antithrombin III): > 300 nM | Kd [7]: > 300 nM | Kd (acidic FGF): > 300 nM

B29: m234t2 (ssDNA)
DNA: CGAGGAGCTTTAGCGCCACAGGTT
Kd [4]: 6 nM

B30: 2'-NH2 54A (ssRNA)
RNA: GGGAGACAAGAAUAACGCUCAAACUGUUGUGUGGAAGACAGCGGGUGGUUGAUUCGACAGGAGGCUCACAACAGGC
modifications: 2'-NH2 pyrimidines
Kd [3]: 1.7 nM

B31: 30-35 (ssDNA)
DNA: AGATGCCTGTCGAGCATGCTGGGAGTGGTAGGAGTAGGGTTGGAGCCGTAGTAGCTAAACTGCTTTGTCGACGGG
Kd (thrombin (alpha) [1]): 1.4 nM

B32: 30-8 (ssDNA)
DNA: AGATGCCTGTCGAGCATGCTGTGAATAGGTAGGGTCGGATGGGCTACGGTGTAGCTAAACTGCTTTGTCGACGGG
Kd (thrombin (alpha) [1]): 0.4 nM
